Legend:
[1] = molecular target: T1, COMMD1 fragment, amino acids 110-190 (clone pGBKL2 (110-190)) (human, UniProt Q8N668 110-190); experiment: yeast two-hybrid with deletion clones
T1 construct: range 110-190; also called COMM domain; not shown: two-hybrid vector fusion partner; not described
Procedure: (§1) FIG. 1. The figure illustrates the physical interaction between the L2 peptide and COMMD1. This was carried out by the technique of two hybrids in yeast. As negative controls were used the mating of the yeast strain AH109 transformed with the empty vector (pGBKT7) and the fragments of COMMD1 transformed with the Y187 strain. For the identification of the interaction, mating of the strain AH109 transformed with vector carrying the sequence of L2 and each COMMD1 fragment transformed into strain Y187 was carried out. As a positive control, the PCL1 mating bearing the GAL4 transcription factor was used. As it can be noted, the interaction occurs with the plasmids carrying the complete sequence of the COMMD1 gene and the construction containing the amino acids 110-190 of the COMMD1 protein.
(§2) corresponding to the L2 peptide sequence: […] For cloning these sequences in the pGBKT7 NcoI-BamHI vector, sequences complementary to these sites were added at the ends of the oligonucleotides. The pGBKL2-1 recombinant plasmid, which carries the L2 peptide sequence was verified by restriction analysis and sequencing. The plasmid was transformed into the AH109 yeast strain by the lithium acetate method and grown in SD-Trp medium. It was verified that it could not be self-activated when grown on SD-Trp-His plates. […]

[2] = molecular target: T2, COMMD1 protein, amino acids 6-190 (two-hybrid clone L2-21) (human, UniProt Q8N668 6-190); experiment: yeast two-hybrid screen of a human liver cDNA library, verified by mating
T2 construct: range 6-190; Prey clone found in the two-hybrid screen; also called MURR1; not shown: fusion partner of the human liver cDNA library (prey) vector in strain Y187; not described
Procedure: as §1, §2

T1 sequence (Q8N668 110-190): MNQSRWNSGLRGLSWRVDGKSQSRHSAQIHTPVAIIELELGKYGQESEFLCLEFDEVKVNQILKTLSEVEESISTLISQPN
T2 sequence (Q8N668 6-190): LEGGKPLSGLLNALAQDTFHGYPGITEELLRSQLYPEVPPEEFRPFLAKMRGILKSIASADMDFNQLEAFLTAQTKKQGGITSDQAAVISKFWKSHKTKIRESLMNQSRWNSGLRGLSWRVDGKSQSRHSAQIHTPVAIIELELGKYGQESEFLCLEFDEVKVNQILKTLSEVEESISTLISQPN

binding result [1]: binds | binding result [2]: binds
B1: L2 peptide expressed from plasmid pGBKL2-1 (pGBKT7 vector) in yeast strain AH109 (peptide)
chain: HARIKPTFRRLKWKYKGKFW
notes: Two-hybrid bait; not shown: fusion partner encoded by the pGBKT7 two-hybrid bait vector

From patent publication US20130224313A1 (CENTRO DE INGENIERIA GENETICA Y BIOTECNOLOGIA, published 2013)
